Consider 65 molecules from patent US20170298096A1 (CANIMGUIDE THERAPEUTICS, published 2017).

No end group written: not given here.

T1: His-tagged P3028 (human, not fully specified)
T1 construct: the tag is put first after 'PGE73=His-tag-P3028'; also called PGE73; not shown: His-tag
T1 peptide: {His‑tag}-VFDEFKPLVEEPQNLIK

In this experiment the target is T1, His-tagged P3028. The experiment is described as follows: chip ELISA.
For the molecule KKSDTFFVKLSLFTER [P28R L3S], the ELISA signal was 393.
The value for KKLDTFFVKLSLFTES [P28R R16S] was 184; that for KKLDTFFVKLSLFTEH [P28R R16H] was 239.
The same measure for KKLDTFFVKLSTFTER [P28R L12T]: 437; for KKLDTFFVKLSDFTER [P28R L12D]: 89.
The value for KKTDTFFVKLSLFTER [P28R L3T] was 451; that for KKLDTFFVKLSLFTEY [P28R R16Y] was 311; that for KKLDTFFVKLSFFTER [P28R L12F] was 389.
On to KKLDTFFVKMSLFTER [P28R L10M], for which the ELISA signal came out at 460.
Turning to KKWDTFFVKLSLFTER [P28R L3W], the ELISA signal was 341.
The value for KKLDTFFVKASLFTER [P28R L10A] was 426; that for KKLDTFFVKLFLFTER [P28R S11F] was 250.
The value for KKVDTFFVKLSLFTER [P28R L3V] was 377; that for KKLDTFFVKLSLFTEA [P28R R16A] was 226.
KKLDTFFVKISLFTER [P28R L10I] had an ELISA signal of 415.
With KKLDTFFVKLSHFTER [P28R L12H], the ELISA signal was determined as 460.
The same measure for KKLDTFFVKQSLFTER [P28R L10Q]: 470.
On to KKLDTFFVKLALFTER [P28R S11A], for which the ELISA signal was 318.
The same measure for KKYDTFFVKLSLFTER [P28R L3Y]: 344.
KKLDTFFVKLSIFTER [P28R L12I] returned an ELISA signal of 456.
For KKLDTFFVKLSLFTED [P28R R16D], the ELISA signal was 133.
The value for KKLDTFFVKNSLFTER [P28R L10N] was 365; that for KKLDTFFVKESLFTER [P28R L10E] was 81.
The same measure for KKLDTFFVKKSLFTER [P28R L10K]: 285.
The value for KKLDTFFVKLSMFTER [P28R L12M] was 499; that for KKLDTFFVKLSLFTEW [P28R R16W] was 202.
The molecule KKLDTFFVKLLLFTER [P28R S11L] registered an ELISA signal of 213.
The same measure for KKLDTFFVKLILFTER [P28R S11I]: 289.
The value for KKLDTFFVKWSLFTER [P28R L10W] was 316; that for KKLDTFFVKLSLFTEM [P28R R16M] was 238.
The value for KKLDTFFVKLSLFTEF [P28R R16F] was 297.
Consider KKLDTFFVKLSLFTET [P28R R16T], for which the ELISA signal is 292.
The molecule KKLDTFFVKLSLFTEE [P28R R16E] showed an ELISA signal of 107.
The same measure for KKLDTFFVKLSSFTER [P28R L12S]: 478.
The same measure for KKLDTFFVKDSLFTER [P28R L10D]: 102; for KKLDTFFVKLSYFTER [P28R L12Y]: 320; for KKLDTFFVKLHLFTER [P28R S11H]: 535.
The value for KKLDTFFVKLSLFTEQ [P28R R16Q] was 133; that for KKLDTFFVKLKLFTER [P28R S11K] was 323; that for KKLDTFFVKLSQFTER [P28R L12Q] was 651.
As to KKLDTFFVKLSLFTEL [P28R R16L], the ELISA signal came to 217.
The value for KKLDTFFVKLSNFTER [P28R L12N] was 462; that for KKLDTFFVKLSLFTEK [P28R R16K] was 291; that for KKLDTFFVKLSRFTER [P28R L12R] was 483.
The value for KKLDTFFVKLSWFTER [P28R L12W] was 409; that for KKLDTFFVKLSLFTEN [P28R R16N] was 311.
KKLDTFFVKLQLFTER [P28R S11Q] yielded an ELISA signal of 768.
In the case of KKLDTFFVKLELFTER [P28R S11E], the ELISA signal stood at 234.
The molecule KKLDTFFVKLRLFTER [P28R S11R] gave an ELISA signal of 333.
The value for KKLDTFFVKVSLFTER [P28R L10V] was 658; that for KKLDTFFVKLSVFTER [P28R L12V] was 545.
The same measure for KKLDTFFVKLSEFTER [P28R L12E]: 82; for KKLDTFFVKLSLFTEI [P28R R16I]: 176; for KKLDTFFVKLSAFTER [P28R L12A]: 462.
The value for KKLDTFFVKFSLFTER [P28R L10F] was 403.
Consider KKLDTFFVKRSLFTER [P28R L10R], for which the ELISA signal was 439.
Molecule KKLDTFFVKLSKFTER [P28R L12K] yielded an ELISA signal of 355.
As to KKLDTFFVKYSLFTER [P28R L10Y], the ELISA signal is 382.
Regarding KKLDTFFVKTSLFTER [P28R L10T], the ELISA signal turned out to be 399.
Take KKLDTFFVKLSLFTEV [P28R R16V]: the ELISA signal was found to be 254.
The same measure for KKLDTFFVKLMLFTER [P28R S11M]: 744; for KKLDTFFVKHSLFTER [P28R L10H]: 293.
The value for KKLDTFFVKSSLFTER [P28R L10S] was 351; that for KKLDTFFVKLNLFTER [P28R S11N] was 451.
Molecule KKLDTFFVKLDLFTER [P28R S11D] yielded an ELISA signal of 322.
